Measurements: patent publication US20260098089A1

How the values were obtained:
[1] = molecular target: Human CD7 on cells (CEM and other T-ALL cells, peripheral NK and T cells) (human) (UniProt P09564); assay: cell-based or functional assay
[2] = molecular target: Human CD7 protein (soluble) (human) (UniProt P09564); assay: SPR, captured mAb, global fit 1:1 model
[3] = molecular target: Cynomolgus monkey (Macaca fascicularis) CD7 protein (soluble) (cynomolgus monkey (Macaca fascicularis)); assay: SPR, captured mAb, global fit 1:1 model
Cynomolgus monkey (Macaca fascicularis) CD7 protein (soluble) (cynomolgus monkey (Macaca fascicularis)), sequence (chain, as listed by the source limits assumed): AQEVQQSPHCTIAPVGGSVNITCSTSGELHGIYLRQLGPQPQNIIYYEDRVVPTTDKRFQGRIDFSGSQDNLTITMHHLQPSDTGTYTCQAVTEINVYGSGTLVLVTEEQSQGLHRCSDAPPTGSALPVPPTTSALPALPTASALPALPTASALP

Human CD7 on cells (CEM and other T-ALL cells, peripheral NK and T cells) (human), sequence (P09564 26-238 limits assumed): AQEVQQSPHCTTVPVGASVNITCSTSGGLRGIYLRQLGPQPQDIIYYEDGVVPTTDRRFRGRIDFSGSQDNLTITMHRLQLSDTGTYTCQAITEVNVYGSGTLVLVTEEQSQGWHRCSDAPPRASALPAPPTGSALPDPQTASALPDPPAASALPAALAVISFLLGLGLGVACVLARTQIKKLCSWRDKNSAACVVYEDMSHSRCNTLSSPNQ
Human CD7 protein (soluble) (human), sequence (P09564 26-180 limits assumed): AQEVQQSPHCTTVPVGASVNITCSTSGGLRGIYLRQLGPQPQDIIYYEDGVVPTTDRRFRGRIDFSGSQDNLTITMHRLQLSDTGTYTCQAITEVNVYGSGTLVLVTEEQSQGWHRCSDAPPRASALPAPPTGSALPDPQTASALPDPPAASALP

| CDC assay on CEM cells, EC50 (FIG. 1) [1] [nM] | EC50, CDC assay on CEM cells [1] [nM] | Kd [2] [nM] | koff [2] [s⁻¹] | kon [2] [M⁻¹ s⁻¹] | Kd [3] [nM] | koff [3] [s⁻¹] | kon [3] [M⁻¹ s⁻¹] | Substance | CDC assay on CEM cells, maximum killing (FIG. 1) [1] [%] | Maximum killing, CDC assay on CEM cells [1] [%] |
| --- | --- | --- | --- | --- | --- | --- | --- | --- | --- | --- |
| < 1 | 0.22 |  |  |  |  |  |  | RFT2 IgG1 E345R (antibody) | 100 | 98.5 |
|  | 0.21 |  |  |  |  |  |  | TH69 E345R (antibody) |  | 87.1 |
|  |  | 0.279 | 0.000125 | 451000 |  |  |  | TH69 (antibody) |  |  |
|  |  | 6.22 | 0.0037 | 611000 | 50.8 | 0.0254 | 529000 | RFT2 IgG1 (antibody) |  |  |
